# Experimental data published in the NTF2 design screens of Basanta et al. (2020).
# Assay: protease stability score; higher = more stable; yeast display proteolysis, trypsin and chymotrypsin;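 further: log10 excess protease needed over predicted unfolded state with 0 meaning unfolded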
row,Sequence,protease stability score
1,DDEEARDIIRLMRHGNFDNIVKQMDPNVTLRYGNNTFHGRERAKHAAQRLKTHIDHVHLKDYKVHGDKIVIDMVYNVNGKHYEVRVVMHIHNGRIQKVQWDFRDDRDETDAEKRLS,1.28
2,DDEEARHRLSRISKMLEENDPQRFSNQADEDVRVDIGDKEIHGKEEVARQLTEWRKQVDHVRVTSVEVQGDHASVQFRADVNGRHRVLTLYMKWTNGRVKEMHIKEG,0.857
3,DDEEDHRVARLASTALQTGDPNQFKNLVDEDVKADVGDKTYHGHEQVMEMFKKFVDQVDHIKVKRVEVDGETARVDAEADINGRTKKIVLDVQAHNGHIKRVQMETS,0.39
4,DDEEDKTLNQKAREALTDNDPDQMMNLFDKDANVDVGEKRVHGREQLRRYMQDLHRMVDHVQVDSVKVDGEKLEFKVTLQYNGRRLKVVFRINYHDGRAKNMHIEFTDEKTLKQFEK,0.882
5,DDEEHRRILERFVRAFQTGDEDDLRNLADPNAKAQVGDKQVHGMDKFATHIRELVDRIDHIDVKSLTASGNTLHARIKFRVNGHDVTVVMRIQVHNGKLKRIEIDPEVVRQIEG,1.22
6,DDEEHVEEMMRRQQNNYKHGDFEELARQFDPNATVNVGDKTYHGREQIRDWYRKRKEDVDSMDLQVQHFSVDNGRIRIQATERQHFNGQDDSTHFQAEARKHGDKAKLKHFRQQ,-0.052
7,DDEEIKRLVKKAAHAFVDNDPDQFIRLLRDDVRARYGDKEVRGKESIKKQLQHWIHRIDHVEVKSFRAHGNSAEAHIVAIINGRTFDVHMDITFDNGRAHTVVFDVRSEEEFKEAMT,1.49
8,DDEEKHKLADEVLHILRTGDHDSMARLADENAKAEIGDSRFHGRDHIRKLVKEFRDTADHIRVIDYRVKGDKIVLRMEFVFNGKTSEVNVVMRFHNGRIKDIEVDPTQVRQMEK,1.03
9,DDEEKKELADEIAQVIRTGDPKRMVEMVDENATAQVGDQKVHGRENIDKMMQNIRRTADHIRIEHVQVHGEEIRIKAKFHINGHTTTWVFSAEVHNGRIQRASLDRR,1
10,DDEELKRQAEEFLKNVKTGNHQELVKQMDPNVKVDVGDKRLQGRETAAHWFVKLVEQVDDFHVQTFDVHGETLEMHFVMEINGHRLQMVLRAEVHNGHIQEMSIDYRDPDRLRKVLS,0.392
11,DDEELQELVKVIQDNDKDRWRENIDKDARVRYGDKQWEGRNEVDKLMRELLEKADHIQFNSIHVQGNSIVVDVNINVNGKELDVIIEMEVRDGRIKHVKFQWRNEELHRIMDEILS,0.879
12,DDEEMTQLLRRILKALEKNDEDLYNQNFDEDVKINVGDKRYNGREDASKLMKTWNKQIDHFQVNDYTVSGEQLEMNITFQVDGRNVSFNVTATAKNGRVKEQTFDPSAMRKARS,-0.077
13,DDEENKKINEQLKTGDPQTFVDQADENARFRIGDKDFQGREDAKKIADLRKNRVDHIRYREVHFEGDKFVLDAVATFNGRRIKFVVHVTFHNGRLKYYRIKVTNEEVRRQLDELNS,0.8
14,DDEEQKERAEEIIKAIQTGDPQQFNRQADPNVEVKIGDTNVHGRENAARNIAERVQRADHIQVETMDVDGNNVVIDMVIQHNGRTKRFIVTLHFQNGRVKKMSIEDS,0.459
15,DDEEQRKLAKEFIDLLRTGDEEHIAHQADKDVTFQIGDKRYTGQEELLKYMKHLVDRVDHIEVEEVDVRGNKVNVTVVVRYNGKRVTLNFDLEFSNGRLIHMSVDPDQQRQLDG,1.18
16,DDEERAEQFFRDIVEAIRTNDEERLRHLFDENAHAQVGDKTLHGREQIVKEIVSMAQSADHVSFQLRDLSVDGETITFYFKVQYTRNGRQTSKDVIIVARQSGDKLSVKTEVDS,1.4
17,DDEERAHEIFKKYQHVLKSNDEDKDRELMDPNARLHIGDKQYHGREQVTKYWHEVLTHADHLEANLKDFRVKGESINIVYTFRQNEDGRDSQVIIEMVMKRQGDHYTVTDNTQK,-0.044
18,DDEERHKDAQKAMHLYQRGNPDEMDRLMDPNVKVRVGDETYHGREQANRAFKKIRDRVDHINVKSVSVHGNRINIVAEVNINGRNDILRVIIDYHNGRARRVIITHK,0.204
19,DDEERRKLADDLIKILQTGSSNDVRKLVDPNAKAHYGEKDFHGERELAKFMKEIADNVDHIEIETMEVHGDRVKIVMVIVHNGKQRRFVMVLVVHNGRIKKASQTSQ,1.46
20,DDEESEKFAEDAMRILQTGDEEKFVRQADPNARVVYGEKTVHGREEAKKEVKTFRDRVDKIDVHHVEVTNGKAFLDATFRFDGRDRHYVVEIVRHNGRIKQMVMKKK,-0.166
21,DDEETAKRHQREWQKNLEFNDEKSIQELVDPNARWQIGDKEVHGREEWARQLRRLREDVDHVQIHVKHVEVSNGQYNLNILIKYNINGETHKIRLVYVAQKNNGRVLVRSVEHK,0.655
22,DDEFLKKVVEVIRHGDEERLVRNFDENARMRIGDKVFHGREEIKKALHRIREHADHIDVESVDQQGDTLDADVFIEVNGKNWVFKLKVTVHNGRIKEVSWHVRDEDADNIMKEIMS,1.8
23,DDEHANSMADQLQKAFETGDEDQIRRLMDKDVSINYGDKRIKGSRELAHWVATLRRQVDSIEYKSIHVKGDKVDIDVVVNVNGRNARFTLVARFSNGKFKELRVDPENMKRLKS,1.47
24,DDEHFDHLRKVLKTGDFERLNQLMDPNASADIGDKRYHGRESLEEMFRKLHTQIDHIEFKSMDLQGNKLKYTLVMTFNGREVTVTVVVEVQNGHIKRISIQARNESDREKLKHALD,1.46
25,DDEHIKEFLQVVRRGDPDKILKMIDPNAHLQVGDKDLHGRDAVKKAQDKLETTVDHFEVEEVHFQGDNVVVTYLLNVNGKSITVQLVANIEDGRIKSMRIEARSEEDHKILNEQQG,0.693

row,Sequence,protease stability score
1,DDEHVRRLAEQLFKAMQSGDPDTVESLFDKNARVQIGDKSVSGHEDISKIFHDNWKRVDEFQLRTYDAHNGRVQLRFELHINGRRADITLSIEFRNGKIQEAVFEFRDESVRQQFRT,1.29
2,DDEIERTMKNLMEAFSEGDPDKFRRNADPNAKMNVGDKSFHGMDDFLHQLKQLNKQARIEIEHITVTAQGDHAEVHAQFVNTENGRPRTKRVVYRAEVRNGQAKSIKLEDTK,0.176
3,DDEIRRQVHRYLRALQRNDEKLASDLLDPNAKFVYGDKTVHGREQHKKELRKMKDQWEFSVDVKKVKVQGNKIKVTADIRVDVNGRPMSHRYVVIFHAHNGKIKNAEFRMDEKYYRDVKR,0.208
4,DDEIWSQIEHLLEIFKTGDEERYREQVDPNAKADVGDKKIHGRERIARHLYHLAKNMTIKREVDSVNIQGNEVSASFEVTVNINGNPIRFTVRVNYNFHNGRLQTFEIDVSEDLTKHMDS,1.9
5,DDEKAKEMMKVWKSGDEEDLVRLADENVSVVVGDHRVRGREEFKKWLHRLSEQVDRWKVDSVHAHNGRIQIDAVYVVNGQEFRLTIHVTMRNGRIKTVRAQVTTEDDERKLKKVVS,0.63
6,DDEKARQQVREFIRAMETGDEDSMVQQLDENAHVHIGDHVWRGREQARNAFKEFVKQFDRIEVKRVEYRNGDVVIDAVANVNGVRVRIIFKIHIHNGRIKNLRIEYRDEEEKKQLDG,1.99
7,DDEKARRWLHTMRDVINRGDPDKWRKLVDENVRLEIGDKEYHGREDARKWMKELRDQVDEIHIKTISAHGDKIEVTMEYKHNGRTRRITVVARIRDGRIKMVQVRDS,1.8
8,DDEKKAKSFVDDLRKILKTGDPEQMRDNADKDARLVIGDQTFHGREDAASKLVTLVKRFDHARFNVKSMTMHNGRIDVDMTFTLRVDGKNERHRVKITVEEHNGRLKMKEVHWS,0.991
9,DDEKKARTLLKQLKEAFENNDEDRARQLMDKDVRLDIGDKTYHGREEAAEAWHRLVETVDHMDMKVRHIENRNGHMVVNADMVLHRDGRQKRLKVTFTARDDNGHAVLVHVSFD,1.45
10,DDEKLANEFQTKFRSVMETNDEENMRKLADKDARLNVGDDDVHGREQVARYLAEVLRRVDTFRVRYEDVDIRNGQVRVTMEIHNNHNGSDRTDRVHLQMEVTGDTASLKRITEG,0.259
11,DDEKLAREFQEKLREALRSGDDKKMVELMDKDARVVVGDKEIQGREEIAKTWATKATQADHVEVHIRNLRVENGRVTVNVEVRLNNNGQDRTNNNTLQNEVHNGHIHMKRQKEN,-0.274
12,DDEKLTTVLKELMKAFEKGDNKKFVDLLDKDVTIDYGDKKVHGRDEATEVFHKIRRQVDHVQVSDMKFENGRASIRATLHFNGKNMEVTFEAVIKNGRIKHAQVEVRDPDELRKMES,1.03
13,DDEKQAHRAFEEWERALRTGNEEDLKRLADENVQVQVGDKQLDGREEVVKWMLDQAERVDHIQIDIKHLRIQNGRVEVNIIIQNNHNGQNQTHTMVVVMRNHNGNLYISDVQRR,1.31
14,DDEKQHTIAKQLVEVLQQNDPDQQRDMVDENANIDIGDKTYQGQEDARKAMDELRRQIDHLTVTSFNVHNGRVEIRARARVNGTDVTVHIEAQLHNGRVKKMKIKYG,-0.196
15,DDEKQVREVVTDFIQALEEGDEKRVRQLIDPNASADVGDRKYHGREQVAEMVREQMDQVDHIEFTLRKVEIQGEEVVVRVEVVLNHNGQEKQIHMTLIFVVKNGHLQLKEIHQD,1.37
16,DDEKRASKFAKKLVDAFKHGDPDRFSRMVDENVRFQVGDTQYHGREDAHNLMQELRDKVDHIHVRLTQLEVKGDKADVHMNLQYKHNGKNNDVRMRAVATDNNGRLLVTHFRIN,1.26
17,DDEKREKILKTFVDLFMNGDEEDIQRMMDENARASVGDKTYHGQEQVNKALKEIRDQFDRVEVKHIHVSGDKFRINMVINVNGKHVHVEVEISVHNGRIHEISFDPEHLTKMRN,0.444
18,DDEKRKDILRKIKENWKRNDHDFFKDMADPNVRAKVGDKLLHGREELEKELREFKKRADHVEIKHVDVTGDNAEVEADIDINGQKRVMVFQVEVHNGKIKHIELDPDDQRKVQK,0.145
19,DDEKTRDLLRKAMRAFITGDPDTLRHLFDKDARARYGDKEVRGREQIQHQLREIRSTVDHIDVKDMEVQGNHATLSLSLVVNGREVKVRVKIVVHNGRAQSVTMDPHDIRKLNS,1.29
20,DDEKVAEQIMNEVLTAIKNNDPQEAADNMDKDARAEVGDNDLTGRERLSKWWVTMANRADHITAHVDSVDEQGDKIHVVWKYTADINGQQVSKDIKFVVVRQNGRVKIKRIKND,1.11
21,DDEKVKSFMKNVVRAWKHNNPDEMAKLADPNARAHVGDKEVHGRHQVKTMITEQLTRVDHVDIRHVHANGDKITIHATLNVNGRTRSVKIEIRFDNGKITDIRMDPDAVKEIKK,0.199
22,DDEKVQKAAHNLIQAIKSGDEDRMRKLMDPNVRVVVGDKEVSGSDDAARFLRELRERVDHVEVKRVEAHNGRIKIDAVNRHNGHDHRFVLEAEVHNGTVKQIRIKEQ,1.43
23,DDELEEQVKKWLENLKNNNEEELQKQMDPNAKMQYGDKEYHGMHDALKTLAQEDRELRYNVRIISINVQGDRVHITRRINRDHDGRPSQKKYKLNLRLHNGRNQHFREQEDG,-0.102
24,DDELEKLITRWLEALDTNNPRQVKSNIDPNVHIEIGDKKIHGREQAMKDIHHRLERMRVEFDLKSLDSHGERASFRFRLHIRFNGRPIDIDAEVSVQVHNGKFKKMSQRISEEQAKQMSE,0.403
25,DDELHKLAEEFVTALQKGDPDRANSLFDPNAKFVVGDEVLHGREDFEKWLDELKHQMRIQFESVKIDKRPGRIIIDNVFRVHVNGKPDQIRIEIDIQVHNGKIKEVIYRMDPDKFREVMS,1.3
